Test results published in patent US20090155256A1.

Molecular target: His-tagged domains of human FcγRII (R&D Systems, Cat # 1330-CD) (human) (UniProt P12318)
Assay: SPR (Biacore 3000), His-tagged receptor captured by penta-His antibody on CM5 chip, antibody injected; RU relative to control

Bapineuzumab (humanized 3D6, human IgG1, no Fc mutations) (antibody)
Relative Binding Capability (%): 100%
